The labels stand for the following.
B1: 15H7 VHH-Fc (Fc fusion)
chain: QVQLVESGGRLVQAGGSLRLSCAAPGRTFRNLTLGWFRQAPGKEREFVASTSWPDDEMTYYTDSVKGRFTISRDNAKNTVYLQMNSLKPEDTAVYYCAAASWSGRSTLSYDYDYWGQGTQVTVST
B2: 7A9 VHH-Fc (Fc fusion)
chain: QVQLVESGGGLVQAGGSLRLSCSASGGTASRSAMGWFRQAPGKEREFVAGISRRNSGSTYVADSYEDSVKGRFTISRDNAKNTIYLQMNSLKPEDTAVYYCAAEPTLGWYVPRRSVEYEYWGQGTQVTVSS
B3: 19E10 VHH-Fc (Fc fusion)
chain: QVQLVESGGGLVQPGGSLRLSCVASGSTISINSMGWYRQAPGKAREMVATITNDGPIKYADPVKGRFTISRDNPKNTVYLQMNSLKPEDTAVYYCVADRAYWLAGEWEYWGQGTQVTVSS
B4: 10B8 VHH-Fc (Fc fusion)
chain: QVQLVESGGGLVQPGGSLRLSCAASGITLDYYAIAWFRQAPGKEREGVSCFCSSDGDIRYADSVKGRFTISRDNAKNTVYLQMNSLKPEDTAVYYCATERVYSSTWFFHRYSELDFGSWGRGTQVTVSS
B5: 5G11 VHH-Fc (Fc fusion)
chain: QVQLVESGGGLVQAGGSLRLSCAASGRTFSIYAVGWFRQAPGKERDFVAGITWSGGTTYYSDSVKGRFTISRDNAKNTVYLQMNNLKPEDTAIYYCAVDTYSMTLSARSYDYWGQGTQVTVSS
B6: 5D7 VHH-Fc (Fc fusion)
chain: QVQLVESGGGLVQAGGSLRLSCAASGRTGSRYIMGWFRQAPGKEREFVAAINWRGDSTYYADSVKGRFTIARDNAKNTAYLQMNSLKPEDTAVYYCVADRGESYYYTRSTEYTYWGQGTQVTVSS
B7: 11F8 VHH-Fc (Fc fusion)
chain: QVQLVESGGGLVQAGGSLRLSCAASGRTVGYYAVGWFRQAPGKERDFVAAISWSGRNTNYADSVTGRFTIFRDNAKNTVDLQMNSLKPEDTAVYYCAADYWNYGSGSEVPNNYDTWGQGTQVTVSS
B8: 5A6 VHH-Fc (Fc fusion)
chain: QVQLVESGGGLAQAGGSLRLSCATSGLTFSMSAMGWFRQAPGNEREFVGVINWNGGSSRYADSVRGRFTISRDNAKNTVYLQMNSLKPEDTGVYYCAADALNIGTGEVNPRLYDYWGQGTQVMVSS
B9: 1A11 VHH-Fc (Fc fusion)
chain: QVQLVESGGGLVQAGGSLRLSCEVSGSIYSINSMGWYRQAPGKQRELVAGIVSDGRINYADSVKGRFTISRAKNTVYLQMNSLKPEDTAVYYCAADRAFVYAGDYDYLGQGTQVTVSS
B10: 13C8 VHH-Fc (Fc fusion)
chain: QVQLVESGGGLVQAGGSLRLSCAASGRTVNKYMTGWFRQTPGKEREFVASIDWSSTTTHYANSVKGRFTISRDKVKNTVYLQMNGLKPEDTAVYYCAAHQDSSYGYTILPIDYDSWGQGTQVTVSS
B11: 15H1 VHH-Fc (Fc fusion)
chain: QVQLVESGGGLAQAGGSLRLSCASSGLIFSGSAMGWFRQAPGKEREFVGVISWNGRTTYADSVKGRFTISRDDAVNMVWLQMNNLKPEDTAVYYCAADHLNYGSGDVNPRTYDYWGQGTQVTVSS
B12: 8E9 VHH-Fc (Fc fusion)
chain: QVQLVESGGGLVEAGGSLRLSCVASGSSSSINAMGWYRQAPGKQRELVASISHDGETKYANSVKGRFTISRGNAKNTIYLQMNSLKPEDTAVYYCVGDVAWVVVAGEYDYWGQGTQVTVSS
B13: 9B2 VHH-Fc (Fc fusion)
chain: QVQLVESGGGLVQPGGSLRLSCAASGFTLDNYAIGWFRQAPGKEREGVSCISSSDGDTQYADSVKGRFTISRDNAKNTVYLQMNSLKPEDTAVYYCAVEKVYARSWFFHLCSELDFGSWGQGTQVTVSS

The assay concerns the target SARS-CoV prefusion-stabilized spike protein (SARS-CoV-PreS) (SARS-CoV, UniProt P59594 14-1190). Description: ELISA. (In general: In an ELISA, binding on a coated surface is turned into a signal by an enzyme label.)
With B1, the EC50 amounted to 0.08 nM.
B2 registered an EC50 of 0.06 nM.
With B3 the figure was 0.03 nM; with B4, 0.13 nM; with B5, 0.18 nM.
For B6 the value was 0.04 nM; for B7, 0.18 nM; for B8, 0.09 nM.
With B9 the figure was 0.05 nM; with B10, 0.1 nM.
The molecule B11 gave an EC50 of 0.06 nM.
For B12, the concentration giving a half-maximal response (EC50) was found to be 0.08 nM. This EC50 and that of the molecule before are within 1.5-fold of each other.
In the case of B13, the EC50 is 0.12 nM. Compared with the last molecule, the EC50 is about 1.5-fold higher.

Usually EC50 stands for the concentration giving half of the maximal effect.
